Data reported in PMC5009064 (Cell Reports, 2016).
One block for each molecule: values may come before it.

What was measured:
HOIP-PUB domain [1] = target: T1, HOIP-PUB domain (UniProt Q96EP0 71-142); assay: ITC
T1 chain: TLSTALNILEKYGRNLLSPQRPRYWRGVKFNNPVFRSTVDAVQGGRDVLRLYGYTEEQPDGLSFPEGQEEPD

HOIP-PUB domain [2] = target: T2, HOIP-PUB domain (UniProt Q96EP0 71-142); assay: ITC; 293 K, ITC-200; 25 mM HEPES pH 7.5, 150 mM NaCl, 0.5 mM TCEP; 20 injections of 2 ul HOIP-PUB domain into peptide or domain in the cell; 1:1 binding model; settings: both partners purified
T2 construct: PUB domain of HOIP, as used for ITC; also called PUB domain of HOIP
T2 sequence (looked up): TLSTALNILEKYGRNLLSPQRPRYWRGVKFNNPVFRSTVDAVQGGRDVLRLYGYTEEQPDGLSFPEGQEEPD

HOIP-PUB domain [3] = target: T3, HOIP-PUB domain (Homo sapiens, UniProt Q96EP0); assay: ITC of HOIP-PUB domain titrated into peptide or protein; assay type: binding; settings: 398 μM HOIP-PUB domain titrated into CYLD-USP domain at 40 μM; 293 K; 25 mM HEPES (pH 7.5), 150 mM NaCl, 0.5 mM TCEP
T3 sequence (Q96EP0 71-142 limits assumed): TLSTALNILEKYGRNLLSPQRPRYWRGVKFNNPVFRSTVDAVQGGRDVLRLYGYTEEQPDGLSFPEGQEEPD
Protocol: (B) ITC characterization of the interactions between (A) the HOIP-PUB domain (597 μM) and a peptide derived from the PIM motif (58 μM) of OTULIN and (B) the HOIP-PUB domain (398 μM) and the CYLD-USP domain (40 μM). For each titration, the raw data and normalized integrated heats are reported. (C) HEK293 cells were transfected with different combinations of CYLD, SPATA2, and OTULIN together with FLAG-HOIP. Protein complexes were subsequently purified using anti-FLAG beads and analyzed by western blotting. (D) SPATA2 expression was suppressed in FLAG-HOIP transfected HEK293 cells using siRNA. FLAG-HOIP was subsequently immunoprecipitated and tested for associated proteins by western blot analysis. (E) A549 cells were transfected with control or SPATA2 siRNA. After 72 hr, cells were subjected to TNFR1-SC purification and analyzed by western blotting. […] They name protein/peptide pairs, not small molecules. / Panel B, Kd: the lowered letter after K is small; read as d.
Samples were subsequently analyzed by western blotting. (B) HOIP-deficient A549 cells were reconstituted with HOIP-WT or HOIP-N102A. […] Samples were analyzed by western blotting. […] Following anti-GFP IP, SPATA association with HOIP and CYLD was evaluated by western blot analysis. […] Bound GST-containing protein was subsequently detected by HRP immunofluorescence, and the signal of both membranes was overlaid. […]

Kd (HOIP-PUB domain [1]): 3200 nM
Molecule: AEHEEDMYRA [peptide derived from the PIM motif of OTULIN]

Kd (HOIP-PUB domain [2]): 900 nM
B1: peptide derived from the C-terminal region of SPATA2 (peptide)
peptide: RGTYFSTQDDVDLYTDSEPR
notes: SPATA2 PIM peptide; also called SPATA2 peptide; PIM of SPATA2

direct interaction by ITC (HOIP-PUB domain [3]): could not detect a direct interaction
B2: CYLD-USP: USP domain of CYLD, protein domain titrated by ITC (protein)
chain: KGIQGHYNSCYLDSTLFCLFAFSSVLDTVLLRPKEKNDVEYYSETQELLRTEIVNPLRIYGYVCATKIMKLRKILEKVEAASGFTSEEKDPEEFLNILFHHILRVEPLLKIRSAGQKVQDCYFYQIFMEKNEKVGVPTIQQLLEWSFINSNLKFAEAPSCLIIQMPRFGKDFKLFKKIFPSLELNITDLLEDTPRQCRICGGLAMYECRECYDDPDISAGKIKQFCKTCNTQVHLHPKRLNHKYNPVSLPKDLPDWDWRHGCIPCQNMELFAVLCIETSHYVAFVKYGKDDSAWLFFDSMADRDGGQNGFNIPQVTPCPEVGEYLKMSLEDLHSLDSRRIQGCARRLLCDAYMCMYQSP
